Results: PMC3252399

Key:
[1] = biological target: K. lactis Ndc10 DI–III (residues 1–534), purified (Kluyveromyces lactis); assay: AUC
Ndc10 DI-III = biological target: T1, Ndc10 DI-III (Kluyveromyces lactis, UniProt Q6CPM4 1-534); assay: EMSA
T1 sequence: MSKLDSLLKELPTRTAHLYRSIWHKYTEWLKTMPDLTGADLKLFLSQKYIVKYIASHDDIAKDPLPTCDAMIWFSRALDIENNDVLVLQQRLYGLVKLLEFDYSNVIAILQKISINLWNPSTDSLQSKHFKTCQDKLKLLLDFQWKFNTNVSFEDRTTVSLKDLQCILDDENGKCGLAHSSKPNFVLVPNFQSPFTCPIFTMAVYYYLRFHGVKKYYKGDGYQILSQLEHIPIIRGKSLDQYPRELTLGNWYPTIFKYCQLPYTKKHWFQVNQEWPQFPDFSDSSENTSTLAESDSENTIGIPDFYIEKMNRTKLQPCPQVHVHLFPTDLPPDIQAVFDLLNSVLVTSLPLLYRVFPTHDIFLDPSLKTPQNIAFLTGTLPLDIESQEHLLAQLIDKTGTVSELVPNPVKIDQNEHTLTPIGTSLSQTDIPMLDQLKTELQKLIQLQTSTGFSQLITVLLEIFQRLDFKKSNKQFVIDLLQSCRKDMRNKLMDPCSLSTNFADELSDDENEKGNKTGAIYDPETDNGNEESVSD

Ndc10 full-length = biological target: T2, Ndc10 full-length (Kluyveromyces lactis, UniProt Q6CPM4 1-736); assay: fluorescence anisotropy
T2 sequence: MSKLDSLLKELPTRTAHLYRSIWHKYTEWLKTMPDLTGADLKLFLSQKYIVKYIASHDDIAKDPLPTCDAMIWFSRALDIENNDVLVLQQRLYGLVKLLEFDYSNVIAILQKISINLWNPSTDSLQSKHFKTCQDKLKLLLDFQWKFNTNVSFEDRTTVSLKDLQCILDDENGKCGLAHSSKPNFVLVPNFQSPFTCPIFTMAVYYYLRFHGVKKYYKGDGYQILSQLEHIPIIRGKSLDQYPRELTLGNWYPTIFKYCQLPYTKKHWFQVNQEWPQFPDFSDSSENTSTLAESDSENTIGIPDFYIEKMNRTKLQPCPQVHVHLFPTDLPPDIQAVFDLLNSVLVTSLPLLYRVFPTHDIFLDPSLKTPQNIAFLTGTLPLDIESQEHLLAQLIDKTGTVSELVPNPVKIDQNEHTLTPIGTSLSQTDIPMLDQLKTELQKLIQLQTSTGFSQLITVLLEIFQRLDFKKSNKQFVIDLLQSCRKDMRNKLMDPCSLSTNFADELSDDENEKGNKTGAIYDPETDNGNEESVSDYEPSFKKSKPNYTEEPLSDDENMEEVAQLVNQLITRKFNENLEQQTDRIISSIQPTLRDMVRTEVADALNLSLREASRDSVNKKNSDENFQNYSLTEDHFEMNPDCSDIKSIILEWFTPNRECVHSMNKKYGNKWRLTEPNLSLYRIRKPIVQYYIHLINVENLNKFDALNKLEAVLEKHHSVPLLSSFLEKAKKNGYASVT

Ndc10 DV = biological target: T3, Ndc10 DV (Kluyveromyces lactis, UniProt Q6CPM4 631-736); assay: EMSA
T3 sequence: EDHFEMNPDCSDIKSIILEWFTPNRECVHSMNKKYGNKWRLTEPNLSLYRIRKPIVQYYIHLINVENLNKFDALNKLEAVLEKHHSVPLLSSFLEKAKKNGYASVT

Ndc10 DI-II = biological target: T4, Ndc10 DI-II (Kluyveromyces lactis, UniProt Q6CPM4 1-403); assay: ITC
T4 sequence: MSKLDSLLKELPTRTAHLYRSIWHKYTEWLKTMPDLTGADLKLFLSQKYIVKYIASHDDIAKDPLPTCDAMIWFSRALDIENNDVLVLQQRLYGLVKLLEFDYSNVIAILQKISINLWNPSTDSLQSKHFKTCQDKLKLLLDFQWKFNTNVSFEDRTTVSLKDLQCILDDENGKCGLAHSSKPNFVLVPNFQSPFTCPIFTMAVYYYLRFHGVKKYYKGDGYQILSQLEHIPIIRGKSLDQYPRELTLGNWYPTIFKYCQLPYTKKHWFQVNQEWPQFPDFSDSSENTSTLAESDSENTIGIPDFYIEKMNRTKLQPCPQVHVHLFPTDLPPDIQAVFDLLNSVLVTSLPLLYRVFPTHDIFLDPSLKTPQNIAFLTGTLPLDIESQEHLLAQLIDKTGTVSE

Molecule	stoichiometry N [1]	binding result (Ndc10 DI-III)	binding result (Ndc10 full-length)	binding result (Ndc10 DV)	binding result (Ndc10 DI-II)
K. lactis Ndc10 DI–III (residues 1–534), purified (domain or fragment)	2				
30 bp CEN1 CDEIII (dsDNA) DNA 1: TGCTTTATGTTTCCGAAAATTATTTTATTA DNA 2: TAATAAAATAATTTTCGGAAACATAAAGCA		binds	binds	no binding	binds
